Data as given in article PMC9481871, “Anti-TGF-β1 aptamer enhances therapeutic effect of tyrosine kinase inhibitor, gefitinib, on non-small cell lung cancer in xenograft model”.

Experiments:
Assay in all cases: SPR; 500 nM protein; aptamer immobilized; SPR (Biacore): 145 mM NaCl, 5.4 mM KCl, 0.8 mM MgCl2, 1.8 mM CaCl2, 20 mM Tris-HCl pH 7.6, 0.05% Tween 20; temperature not given
Conditions in all cases: protein: recombinant; chain copies: 2
[1] = target: human TGF-β1 (active) (Homo sapiens, UniProt P01137 279-390)
[2] = target: T1, human TGF-β3 (Homo sapiens, UniProt P10600 301-412)
T1 sequence: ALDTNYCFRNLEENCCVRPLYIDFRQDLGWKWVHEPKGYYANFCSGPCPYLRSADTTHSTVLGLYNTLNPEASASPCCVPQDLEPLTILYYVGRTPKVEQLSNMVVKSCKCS

[3] = target: mouse TGF-β1 (active) (Mus musculus, UniProt P04202 279-390)
[4] = target: T2, human TGF-β2 (Homo sapiens, UniProt P61812 303-414)
T2 sequence: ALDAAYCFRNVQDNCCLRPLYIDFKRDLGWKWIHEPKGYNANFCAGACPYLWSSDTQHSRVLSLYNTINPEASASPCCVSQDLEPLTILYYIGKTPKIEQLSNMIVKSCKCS

Chain of human TGF-β1 (active) (P01137 279-390): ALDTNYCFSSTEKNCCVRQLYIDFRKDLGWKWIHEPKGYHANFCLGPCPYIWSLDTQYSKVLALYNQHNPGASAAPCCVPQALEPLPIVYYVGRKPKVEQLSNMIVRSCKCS
Chain of mouse TGF-β1 (active) (P04202 279-390): as the sequence (P01137 279-390) above, with A75S counted along it

B1: APT-β1 (structured_RNA)
RNA: GGCAUAAGGGAGGGGAGACUUGUGGAGGGCAAG
modifications: 2'-fluoro pyrimidines (SELEX with 2'-F-CTP and 2'-F-UTP); parent of APT-β1-OMe without 2'-OMe
[1]
  binding result: binds
[2]
  binding result: no binding
[3]
  binding result: binds
[4]
  binding result: no binding
